Target: GFP-CLASP2 S1234A mutant (human)
Assay: co-IP

reduction of co-immunoprecipitated Plk1 relative to wild type: 40%
Substance: Polo-like kinase 1 (Plk1), endogenous (from UniProt P53350 1-603) (natural protein)

From article PMC3471233
